Data on 5 molecules can be found in patent US7425447 (Biogen, dated 2008).

In assay [1] the target is human B7.1 antigen (CD80), membrane associated (human) (UniProt P33681). Put plainly: competition on B7.1 transfected CHO cells; competitor pair BB-1 and L307.4 (FIG. 8).
Assay [2] has as its target T1, B7 antigen (CD80) as used in surface plasmon resonance (UniProt P33681 35-242, limits assumed).
T1 sequence (looked up): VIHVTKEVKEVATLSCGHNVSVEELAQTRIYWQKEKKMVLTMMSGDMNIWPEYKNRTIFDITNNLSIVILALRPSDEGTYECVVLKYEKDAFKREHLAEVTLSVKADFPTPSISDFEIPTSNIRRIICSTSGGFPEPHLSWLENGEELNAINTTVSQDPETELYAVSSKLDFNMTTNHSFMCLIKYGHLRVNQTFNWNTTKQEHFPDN
Put plainly: surface plasmon resonance. In general terms: SPR reads the build-up and loss of mass on a sensor chip optically.

Assay [3] has as its target T2, B7.1/Ig fusion protein (human, UniProt P33681 35-242, limits assumed).
T2 construct: Secreted from CHO cells; also called B7-Ig; B7Ig; not shown: human immunoglobulin CH2 and CH3
T2 sequence (looked up): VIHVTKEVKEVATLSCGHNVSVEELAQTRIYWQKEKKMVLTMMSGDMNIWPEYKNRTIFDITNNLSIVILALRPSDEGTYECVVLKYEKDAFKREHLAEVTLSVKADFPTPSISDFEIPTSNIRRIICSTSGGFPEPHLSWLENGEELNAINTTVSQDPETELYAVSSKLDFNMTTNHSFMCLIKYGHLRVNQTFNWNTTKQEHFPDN
As to the kind of experiment: competition of 125I-B7.1Ig binding to CD28 positive peripheral blood T lymphocytes (FIG. 10).

Assay [4] has as its target T2, B7.1/Ig fusion protein. Put plainly: cell-based or functional assay.
Assay [5] concerns the target T2, B7.1/Ig fusion protein. As to the kind of experiment: Scatchard analysis, binding to B7-Ig coated plates (apparent Kd).
Assay [6] deals with T2, B7.1/Ig fusion protein. Described as above. This is another data set of the same source.
Assay [7] concerns the target T3, human B7.1 antigen (CD80), membrane associated (human, UniProt P33681 35-288).
T3 sequence (looked up): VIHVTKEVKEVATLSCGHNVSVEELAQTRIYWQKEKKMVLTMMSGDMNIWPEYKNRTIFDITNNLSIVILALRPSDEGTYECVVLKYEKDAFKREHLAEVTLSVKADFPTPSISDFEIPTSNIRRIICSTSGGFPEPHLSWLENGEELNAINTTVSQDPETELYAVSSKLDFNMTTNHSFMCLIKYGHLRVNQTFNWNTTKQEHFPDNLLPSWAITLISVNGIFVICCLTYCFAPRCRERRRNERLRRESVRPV
Put plainly: cell-based or functional assay.

Read-outs that look alike come from different tables or passages of the source.

As a reminder, the IC50 is the concentration that inhibits the measured activity by half. Lower therefore signals greater potency.

Molecule BB-1 murine anti-B7 antibody gave a cross-reactivity (competition) in assay [1] of 50%.

B1: PRIMATIZED 16C10 (antibody, V domains shown)
VH: QVQLQESGPGLVKPSETLSLTCAVSGGSISGGYGWGWIRQPPGKGLEWIGSFYSSSGNTYYNPSLKSQVTISTDTSKNQFSLKLNSMTAADTAVYYCVRDRLFSVVGMVYNNWFDVWGPGVLVTVSS
VL: ESALTQPPSVSGAPGQKVTISCTGSTSNIGGYDLHWYQQLPGTAPKLLIYDINKRPSGISDRFSGSKSGTAASLAITGLQTEDEADYYCQSYDSSLNAQVFGGGTRLTVLG
notes: Monkey variable domains with human constant regions, made in CHO cells; Biotinylated in some assays; also called P16C10; copies: 2 + 2
B1 had a Kd in assay [2] of 4 nM. For the same molecule, the IC50 with B7.1/Ig fusion protein [3] was below 1 µg/mL. Besides, in the assay with B7.1/Ig fusion protein [4], the “concentration for equivalent blocking of IL-2 production against CTLA-4Ig, anti-CD3/B7 beads (8:1)” value is around 10 fold.

B2: monkey monoclonal antibody 16C10 (antibody, V domains shown)
VH: QVQLQESGPGLVKPSETLSLTCAVSGGSISGGYGWGWIRQPPGKGLEWIGSFYSSSGNTYYNPSLKSQVTISTDTSKNQFSLKLNSMTAADTAVYYCVRDRLFSVVGMVYNNWFDVWGPGVLVTVSS
VL: ESALTQPPSVSGAPGQKVTISCTGSTSNIGGYDLHWYQQLPGTAPKLLIYDINKRPSGISDRFSGSKSGTAASLAITGLQTEDEADYYCQSYDSSLNAQVFGGGTRLTVL
notes: Cynomolgus monkey antibody from a heterohybridoma; also called hybridoma ATCC HB-12119
Turning to B2, the Kd in the assay with B7.1/Ig fusion protein [5] and with B7.1/Ig fusion protein [6] was around 8.1 nM throughout. Besides, in assay [7], the “inhibition of IL-2 production in mixed lymphocyte reaction” value (“inhibition of IL-2 production” below) worked out at 0.1 µg/mL.

B3: monkey monoclonal antibody 7C10 (antibody, V domains shown)
VH: QVKLQQWGEGLLQPSETLSRTCVVSGGSISGYYYWTWIRQTPGRGLEWIGHIYGNGATTNYNPSLKSRVTISKDTSKNQFFLNLNSVTDADTAVYYCARGPRPDCTTICYGGWVDVWGPGDLVTVSS
VL: AYELTQPPSVSVSPGQTARITCGGDNSRNEYVHWYQQKPARAPILVIYDDSDRPSGIPERFSGSKSGNTATLTINGVEAGDEADYYCQVWDRASDHPVFGGGTRVTVL
notes: Cynomolgus monkey antibody from a heterohybridoma; The claims (CLM-00020) say that the amino acid entries are the even numbers of each pair; also called 7C10 monkey Ig; hybridoma ATCC HB-12117
Regarding B3, the Kd with B7.1/Ig fusion protein [5] and with B7.1/Ig fusion protein [6] was around 6.2 nM throughout. The “inhibition of IL-2 production” value in assay [7] was 5 µg/mL.

B4: monkey monoclonal antibody 7B6 (antibody, V domains shown)
VH: EVQLVESGGGLVQPGGSLRVSCAVSGFTFSDHYMYWFRQAPGKGPEWVGFIRNKPNGGTTEYAASVKDRFTISRDDSKSIAYLQMSSLKIEDTAVYYCTTSYISHCRGGVCYGGYFEFWGQGALVTVSS
VL: EVVMTQSPLSLPITPGEPASISCRSSQSLKHSNGDTFLSWYQQKPGQPPRLLIYKVSNRDSGVPDRFSGSGAGTDFTLKISAVEAEDVGVYFCGQGTRTPPTFGGGTKVEIK
notes: Cynomolgus monkey antibody from a heterohybridoma; also called hybridoma ATCC HB-12120
In the case of B4, the Kd with B7.1/Ig fusion protein [5] and in the assay with B7.1/Ig fusion protein [6] was around 10.7 nM throughout. In addition, in assay [7], the “inhibition of IL-2 production” value amounted to 5 µg/mL.
